Common to all, as to assay: SPR, antibody captured, C2 as analyte;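 further: biacore SPR at 37 °C, anti-C2 mAbs captured via goat anti-human IgG on CM5 chips, double-referenced sensorgrams fit to a 1:1 kinetic or steady-state model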
One assay addresses T1, human C2 D431A (human, UniProt P06681 21-752).
T1 sequence: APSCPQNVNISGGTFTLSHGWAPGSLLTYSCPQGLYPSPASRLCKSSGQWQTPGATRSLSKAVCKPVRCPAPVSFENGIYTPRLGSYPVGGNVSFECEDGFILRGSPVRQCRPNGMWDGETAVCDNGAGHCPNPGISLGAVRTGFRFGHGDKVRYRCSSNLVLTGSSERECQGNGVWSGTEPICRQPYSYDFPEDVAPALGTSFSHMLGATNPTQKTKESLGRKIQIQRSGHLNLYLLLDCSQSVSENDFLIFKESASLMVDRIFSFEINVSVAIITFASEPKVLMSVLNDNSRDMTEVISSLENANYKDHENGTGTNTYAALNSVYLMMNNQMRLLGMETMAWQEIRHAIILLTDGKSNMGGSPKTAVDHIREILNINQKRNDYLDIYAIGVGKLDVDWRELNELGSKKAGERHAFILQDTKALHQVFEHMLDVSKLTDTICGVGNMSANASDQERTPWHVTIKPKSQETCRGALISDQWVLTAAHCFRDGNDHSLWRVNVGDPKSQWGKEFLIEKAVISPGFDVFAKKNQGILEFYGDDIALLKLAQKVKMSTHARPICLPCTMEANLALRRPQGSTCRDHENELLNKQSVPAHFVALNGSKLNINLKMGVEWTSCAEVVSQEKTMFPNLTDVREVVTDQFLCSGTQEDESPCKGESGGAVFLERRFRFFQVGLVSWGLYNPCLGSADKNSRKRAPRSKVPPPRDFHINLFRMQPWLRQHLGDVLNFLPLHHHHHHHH

Another assay concerns the target T2, human C2 A444S (human, UniProt P06681 21-752).
T2 sequence: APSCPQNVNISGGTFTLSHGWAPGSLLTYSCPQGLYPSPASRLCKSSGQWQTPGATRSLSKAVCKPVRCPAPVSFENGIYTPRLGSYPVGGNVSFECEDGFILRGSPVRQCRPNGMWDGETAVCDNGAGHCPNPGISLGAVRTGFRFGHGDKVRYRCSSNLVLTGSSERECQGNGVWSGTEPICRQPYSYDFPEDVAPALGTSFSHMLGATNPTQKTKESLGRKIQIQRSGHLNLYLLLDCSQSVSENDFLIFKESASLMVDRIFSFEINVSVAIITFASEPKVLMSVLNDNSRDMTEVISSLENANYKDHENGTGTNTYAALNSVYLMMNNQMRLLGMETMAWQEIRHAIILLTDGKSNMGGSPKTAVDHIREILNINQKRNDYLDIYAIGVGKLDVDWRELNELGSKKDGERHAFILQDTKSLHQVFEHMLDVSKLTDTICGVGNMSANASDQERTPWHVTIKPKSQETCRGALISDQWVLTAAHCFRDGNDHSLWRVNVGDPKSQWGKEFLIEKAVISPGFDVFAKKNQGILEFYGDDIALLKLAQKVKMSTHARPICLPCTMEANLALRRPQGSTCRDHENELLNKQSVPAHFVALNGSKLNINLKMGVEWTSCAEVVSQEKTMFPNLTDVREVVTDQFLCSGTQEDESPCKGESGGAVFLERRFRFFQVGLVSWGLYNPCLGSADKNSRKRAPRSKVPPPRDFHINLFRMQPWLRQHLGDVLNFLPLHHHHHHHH

For the next assay, the target named is T3, human C2 S428A (human, UniProt P06681 21-752).
T3 sequence: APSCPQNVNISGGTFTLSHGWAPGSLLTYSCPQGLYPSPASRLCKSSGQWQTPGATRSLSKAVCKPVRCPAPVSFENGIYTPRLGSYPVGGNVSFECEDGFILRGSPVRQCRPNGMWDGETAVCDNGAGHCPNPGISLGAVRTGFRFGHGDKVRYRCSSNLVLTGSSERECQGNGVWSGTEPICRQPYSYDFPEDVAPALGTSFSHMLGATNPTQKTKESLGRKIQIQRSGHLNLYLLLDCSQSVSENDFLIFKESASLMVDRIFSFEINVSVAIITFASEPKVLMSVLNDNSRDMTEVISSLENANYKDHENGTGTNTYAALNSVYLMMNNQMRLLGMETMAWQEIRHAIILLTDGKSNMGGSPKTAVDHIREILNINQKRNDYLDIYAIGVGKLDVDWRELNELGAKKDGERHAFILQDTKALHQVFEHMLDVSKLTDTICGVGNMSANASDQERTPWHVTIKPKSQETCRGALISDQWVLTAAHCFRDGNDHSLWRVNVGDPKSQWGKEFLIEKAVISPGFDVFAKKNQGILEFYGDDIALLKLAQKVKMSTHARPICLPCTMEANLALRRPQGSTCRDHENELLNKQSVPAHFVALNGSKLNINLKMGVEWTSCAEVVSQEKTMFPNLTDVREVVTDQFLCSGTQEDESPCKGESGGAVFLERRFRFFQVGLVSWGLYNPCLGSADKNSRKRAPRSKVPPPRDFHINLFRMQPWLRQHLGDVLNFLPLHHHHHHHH

The next assay has as its target T4, human C2 A326S (human, UniProt P06681 21-752).
T4 sequence: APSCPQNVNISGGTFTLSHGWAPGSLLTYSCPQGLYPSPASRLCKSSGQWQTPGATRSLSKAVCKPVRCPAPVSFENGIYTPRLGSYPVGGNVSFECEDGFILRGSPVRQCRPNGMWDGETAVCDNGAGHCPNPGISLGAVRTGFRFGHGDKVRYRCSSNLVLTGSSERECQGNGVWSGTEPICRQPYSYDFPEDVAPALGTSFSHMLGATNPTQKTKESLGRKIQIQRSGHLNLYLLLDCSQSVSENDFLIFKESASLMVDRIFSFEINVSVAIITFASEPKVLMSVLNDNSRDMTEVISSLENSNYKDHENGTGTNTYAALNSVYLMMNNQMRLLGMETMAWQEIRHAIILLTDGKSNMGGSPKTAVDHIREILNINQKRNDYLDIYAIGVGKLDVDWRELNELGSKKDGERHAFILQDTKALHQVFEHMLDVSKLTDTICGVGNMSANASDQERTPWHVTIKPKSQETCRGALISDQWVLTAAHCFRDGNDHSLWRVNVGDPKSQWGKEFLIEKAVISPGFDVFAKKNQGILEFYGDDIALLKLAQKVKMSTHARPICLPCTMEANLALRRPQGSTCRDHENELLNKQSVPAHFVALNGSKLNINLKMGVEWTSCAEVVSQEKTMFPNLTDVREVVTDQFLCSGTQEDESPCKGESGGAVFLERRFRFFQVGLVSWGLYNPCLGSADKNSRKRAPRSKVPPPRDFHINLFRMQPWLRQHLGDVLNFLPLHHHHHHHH

Here are results for 1 molecule from patent US20220332804A1 (CSL INNOVATION, published 2022).

The Kd is the free concentration of one partner at which half of the binding sites on the other are occupied at equilibrium, for simple one-to-one binding. A low value points to tighter binding.

B1: RF16-226 (antibody, human IgG4 S228P, lambda)
heavy: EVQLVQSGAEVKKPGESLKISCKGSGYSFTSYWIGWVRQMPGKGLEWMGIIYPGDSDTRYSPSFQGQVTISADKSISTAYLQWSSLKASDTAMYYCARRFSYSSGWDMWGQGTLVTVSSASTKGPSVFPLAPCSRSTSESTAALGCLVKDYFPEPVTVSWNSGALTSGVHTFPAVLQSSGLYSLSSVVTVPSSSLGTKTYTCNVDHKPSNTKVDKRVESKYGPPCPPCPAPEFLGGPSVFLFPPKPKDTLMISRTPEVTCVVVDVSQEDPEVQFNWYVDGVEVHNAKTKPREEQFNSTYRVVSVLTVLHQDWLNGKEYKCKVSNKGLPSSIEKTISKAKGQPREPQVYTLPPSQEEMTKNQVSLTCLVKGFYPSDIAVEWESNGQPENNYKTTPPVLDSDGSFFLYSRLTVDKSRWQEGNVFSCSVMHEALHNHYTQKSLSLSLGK
light: SYELTQPPSVSVSPGQTARITCSGDALTSKYVAWYQQKSGLAPLLVIYEDTRRPSGIPAKFSGSSSGSVATLTISGAHGDDEADYYCYSTDASGHQRVFGGGTKLTVLSQPKAAPSVTLFPPSSEELQANKATLVCLISDFYPGAVTVAWKADGSPVKAGVETTKPSKQSNNKYAASSYLSLTPEQWKSHRSYSCQVTHEGSTVEKTVAPTECS
notes: pH-dependent anti-C2 antibody from a phage display library; also called WT
B1: the Kd with human C2 D431A was 43.4 nM; in the assay with human C2 A444S it was 19.8 nM; in the assay with human C2 S428A it was 18.8 nM; with human C2 A326S it was 13.2 nM.
